From patent US20210238276A1 (INTEGRAL MOLECULAR, published 2021)

What was measured:
Assay in all cases: flow cytometry, alanine-scan library in HEK-293T, with cytochalasin B
hsGLUT4 R169A = target: T1, hsGLUT4 R169A (human, UniProt P14672 1-509)
T1 sequence: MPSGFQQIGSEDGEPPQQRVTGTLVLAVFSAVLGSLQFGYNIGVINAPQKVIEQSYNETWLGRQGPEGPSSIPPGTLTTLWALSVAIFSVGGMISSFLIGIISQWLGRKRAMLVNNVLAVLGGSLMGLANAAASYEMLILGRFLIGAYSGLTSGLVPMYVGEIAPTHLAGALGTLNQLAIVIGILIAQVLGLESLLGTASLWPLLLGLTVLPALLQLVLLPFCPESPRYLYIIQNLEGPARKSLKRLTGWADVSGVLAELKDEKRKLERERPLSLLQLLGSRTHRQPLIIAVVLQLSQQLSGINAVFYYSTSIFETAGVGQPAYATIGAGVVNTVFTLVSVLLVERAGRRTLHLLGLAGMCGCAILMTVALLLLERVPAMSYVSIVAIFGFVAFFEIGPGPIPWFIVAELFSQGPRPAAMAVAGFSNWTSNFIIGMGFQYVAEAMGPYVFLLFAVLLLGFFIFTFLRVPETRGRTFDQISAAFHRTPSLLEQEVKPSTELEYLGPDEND
Experimental: (§1) Because of the state-dependence of the isolated MAbs, we next wished to understand the mechanism by which each MAb could recognize GLUT4 in its different conformations. The residues required for binding of each MAb were determined using shotgun mutagenesis comprehensive alanine scanning (Davidson E & Doranz B J (2014) A High-Throughput Shotgun Mutagenesis Approach to Mapping B-cell Antibody Epitopes. Immunology, which is hereby incorporated by reference in its entirety). All residues of hsGLUT4 were individually mutated to alanine, with existing alanines changed to serines. Mutations were obtained for 508 of the 509 residues of GLUT4 (excluding the initiating methionine). The entire mutation library was transfected into human HEK-293T cells in a 384-well array format (one clone per well) and assessed for immunoreactivity using high-throughput flow cytometry.
(§2) HEK-293T cells were transfected by CaPO₄ with plasmids in 6-well culture plates (Falcon) at 750,000 cells/well. At 48 hours post transfection, cells were stained with anti-V5 and anti-GLUT4 MAbs (purified scFv, 2 μg/ml) followed by biotinylated goat anti-mouse or human antibody (1:500) and streptavidin-PerCP (1:500). Fluorescence was detected using an Intellicyt high-throughput flow cytometer (HTFC; Intellicyt, Albuquerque, N. Mex.). For cell permeabilization, cells were treated with saponin at 0.1% in PBS for 20 minutes. To discriminate intact (live) and permeabilized (dead) cells without the use of detergent, propidium iodide (PI) was added to HEK-293T cells at 1 ug/ml just prior to flow cytometry. Where indicated, cytochalasin B (Sigma) was used at a final concentration of 10 uM and phloretin (Sigma) was used at a final concentration of 100 uM, each added in 10% NGS for 30 minutes prior to antibody staining as well as included with the primary antibody.

hsGLUT4 L260A = target: T2, hsGLUT4 L260A (human, UniProt P14672 1-509)
T2 sequence: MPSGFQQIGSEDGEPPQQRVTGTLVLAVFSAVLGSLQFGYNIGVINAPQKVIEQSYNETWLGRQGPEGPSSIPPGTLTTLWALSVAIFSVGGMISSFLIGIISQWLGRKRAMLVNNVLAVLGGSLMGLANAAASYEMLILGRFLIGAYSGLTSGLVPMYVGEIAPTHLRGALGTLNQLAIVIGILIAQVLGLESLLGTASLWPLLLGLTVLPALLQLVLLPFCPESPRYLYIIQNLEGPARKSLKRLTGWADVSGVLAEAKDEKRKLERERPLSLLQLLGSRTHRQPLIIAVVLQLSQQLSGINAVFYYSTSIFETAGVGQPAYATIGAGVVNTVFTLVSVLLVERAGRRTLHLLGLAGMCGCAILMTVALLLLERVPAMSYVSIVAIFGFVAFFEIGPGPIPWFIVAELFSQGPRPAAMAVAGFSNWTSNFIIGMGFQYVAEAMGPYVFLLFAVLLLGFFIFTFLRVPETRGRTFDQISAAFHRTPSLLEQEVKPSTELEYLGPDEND
Experimental: as §1, §2

hsGLUT4 Y309A = target: T3, hsGLUT4 Y309A (human, UniProt P14672 1-509)
T3 sequence: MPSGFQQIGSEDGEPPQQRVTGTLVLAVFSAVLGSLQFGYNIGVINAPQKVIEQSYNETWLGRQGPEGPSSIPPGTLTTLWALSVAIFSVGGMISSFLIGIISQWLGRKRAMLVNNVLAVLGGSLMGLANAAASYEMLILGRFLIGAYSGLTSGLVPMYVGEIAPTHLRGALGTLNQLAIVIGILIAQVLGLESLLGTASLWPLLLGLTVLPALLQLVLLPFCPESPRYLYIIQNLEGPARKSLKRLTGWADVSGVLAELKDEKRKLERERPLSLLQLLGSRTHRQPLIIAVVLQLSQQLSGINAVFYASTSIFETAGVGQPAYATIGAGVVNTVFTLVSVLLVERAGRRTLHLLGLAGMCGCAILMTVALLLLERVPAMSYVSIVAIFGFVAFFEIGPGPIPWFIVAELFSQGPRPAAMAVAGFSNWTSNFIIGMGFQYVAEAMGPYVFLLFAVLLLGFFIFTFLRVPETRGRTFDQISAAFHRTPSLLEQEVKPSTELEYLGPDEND
Experimental: as §1, §2

hsGLUT4 D506A = target: T4, hsGLUT4 D506A (human, UniProt P14672 1-509)
T4 sequence: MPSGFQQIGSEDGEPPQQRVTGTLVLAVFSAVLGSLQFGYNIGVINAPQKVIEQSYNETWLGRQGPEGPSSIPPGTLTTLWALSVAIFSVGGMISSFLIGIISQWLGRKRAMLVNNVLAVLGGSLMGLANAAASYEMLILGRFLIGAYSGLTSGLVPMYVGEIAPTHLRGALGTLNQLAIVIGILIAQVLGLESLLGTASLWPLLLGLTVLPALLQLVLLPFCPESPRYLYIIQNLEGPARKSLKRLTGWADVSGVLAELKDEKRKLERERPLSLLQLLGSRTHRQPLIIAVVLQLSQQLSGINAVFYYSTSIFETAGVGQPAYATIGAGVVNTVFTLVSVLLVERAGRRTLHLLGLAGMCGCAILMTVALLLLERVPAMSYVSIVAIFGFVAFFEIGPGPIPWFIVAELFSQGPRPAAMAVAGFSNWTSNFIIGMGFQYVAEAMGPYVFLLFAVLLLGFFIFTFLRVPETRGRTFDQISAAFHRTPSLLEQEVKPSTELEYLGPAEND
Experimental: as §1, §2

B1: AB102 (Fc fusion)
scFv: ALTQPSSVSANLGGTVKITCSGGGSYGYGWYQQKSPGSAPVTVIYSNDQRPSDIPSRFSGSKSGSTATLTITGVRAEDEAIYYCGSTDSDYVGIFGAGTTLTVLGQSSRSSGGGGSSGGGGSAVTLDESGGGLQTPGGTLSLVCKASGFDFSSYATIWVRQAPGKGLEWVAGISGTGTGSSTGYAPAVKGRATISRDNGQSTVRLQLNNLRAEDTGSYFCAKSTGYGDSWIYPDSIDAWGHGTEVIVSS
notes: also called MAb AB102; not shown: Fc fragment of human IgG1, cloned in frame with the scFv
hsGLUT4 R169A
  % of binding to wild type GLUT4: 77%
hsGLUT4 L260A
  % of binding to wild type GLUT4: 42%
hsGLUT4 Y309A
  % of binding to wild type GLUT4: 24%
hsGLUT4 D506A
  % of binding to wild type GLUT4: 60%
